To fix the notation:
B1: Retinoblastoma-associated protein (Homo sapiens), P06400 (parent)
chain: MPPKTPRKTAATAAAAAAEPPAPPPPPPPEEDPEQDSGPEDLPLVRLEFEETEEPDFTALCQKLKIPDHVRERAWLTWEKVSSVDGVLGGYIQKKKELWGICIFIAAVDLDEMSFTFTELQKNIEISVHKFFNLLKEIDTSTKVDNAMSRLLKKYDVLFALFSKLERTCELIYLTQPSSSISTEINSALVLKVSWITFLLAKGEVLQMEDDLVISFQLMLCVLDYFIKLSPPMLLKEPYKTAVIPINGSPRTPRRGQNRSARIAKQLENDTRIIEVLCKEHECNIDEVKNVYFKNFIPFMNSLGLVTSNGLPEVENLSKRYEEIYLKNKDLDARLFLDHDKTLQTDSIDSFETQRTPRKSNLDEEVNVIPPHTPVRTVMNTIQQLMMILNSASDQPSENLISYFNNCTVNPKESILKRVKDIGYIFKEKFAKAVGQGCVEIGSQRYKLGVRLYYRVMESMLKSEEERLSIQNFSKLLNDNIFHMSLLACALEVVMATYSRSTSQNLDSGTDLSFPWILNVLNLKAFDFYKVIESFIKAEGNLTREMIKHLERCEHRIMESLAWLSDSPLFDLIKQSKDREGPTDHLESACPLNLPLQNNHTAADMYLSPVRSPKKKGSTTRVNSTANAETQATSAFQTQKPLKSTSLSLFYKKVYRLAYLRLNTLCERLLSEHPELEHIIWTLFQHTLQNEYELMRDRHLDQIMMCSMYGICKVKNIDLKFKIIVTAYKDLPHAVQETFKRVLIKEEEYDSIIVFYNSVFMQRLKTNILQYASTRPPTLSPIPHIPRSPYKFPSSPLRIPGGNIYISPLKSPYKISEGLPTPTKMTPRSRILVSIGESFGTSEKFQKINQMVCNSDRVLKRSAEGSNPPKPLKKLRFDIEGSDEADGSKHLPGESKFQQKLAEMTSTRTRMQKQKMNDSMDTSNKEEK
partner: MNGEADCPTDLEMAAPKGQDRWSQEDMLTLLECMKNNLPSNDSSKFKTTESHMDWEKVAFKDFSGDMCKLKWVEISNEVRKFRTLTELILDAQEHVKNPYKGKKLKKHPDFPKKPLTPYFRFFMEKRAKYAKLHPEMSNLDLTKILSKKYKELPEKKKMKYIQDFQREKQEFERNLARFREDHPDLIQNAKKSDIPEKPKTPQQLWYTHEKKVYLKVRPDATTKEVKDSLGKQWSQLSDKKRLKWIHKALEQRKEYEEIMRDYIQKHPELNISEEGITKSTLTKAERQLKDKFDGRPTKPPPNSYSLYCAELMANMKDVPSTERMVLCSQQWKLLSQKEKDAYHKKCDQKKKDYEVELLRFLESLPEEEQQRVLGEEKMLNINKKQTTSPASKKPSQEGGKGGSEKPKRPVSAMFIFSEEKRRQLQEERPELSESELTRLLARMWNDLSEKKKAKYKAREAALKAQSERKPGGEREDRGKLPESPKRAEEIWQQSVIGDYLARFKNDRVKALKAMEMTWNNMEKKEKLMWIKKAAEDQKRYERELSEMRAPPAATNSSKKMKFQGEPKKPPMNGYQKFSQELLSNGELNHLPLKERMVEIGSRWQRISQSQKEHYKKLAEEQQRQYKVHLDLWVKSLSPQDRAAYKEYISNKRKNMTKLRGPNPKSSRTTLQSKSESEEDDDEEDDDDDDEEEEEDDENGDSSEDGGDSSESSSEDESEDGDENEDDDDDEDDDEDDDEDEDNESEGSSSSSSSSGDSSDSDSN

The variants in the assay derive from B1. The note with it: with ubf1_rat Ubtf.
For the variant C706F, the “effect of a mutation on the interaction” value was “disrupting interaction”.

The values above are taken from IntAct's records for PubMed 7877691.
